Measurements taken from the nanobody polyreactivity screen of Harvey et al. (2022).

Experiment: yeast display, Sf9 membrane polyspecificity reagent, FACS + sequencing; frameworks hold sequencing errors
Procedure, shortened: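 Polyreactivity labels are assigned by the sorting gate from which each nanobody was recovered. The gates were low and high (top ~1%), set on anti-HA fluorescence for expression and streptavidin fluorescence for reagent binding. Before sorting, galactose-induced (36–48 hours) yeast display cells were stained for 1 hour at 4 °C with 10% biotinylated, detergent-solubilized Sf9 membrane reagent.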

Row | Sequence | polyreactivity (PSR sort gate)
1 | QVQLVESGGGLVQAGGSLRLSCAASGRIFPSYAMGWYIQAPGKERELVAAITSSDSTYYADSVKGRFTISRDNAKNTVYLQMNSLKPEDTAVYYCAAAYSYSGWWWFGYWGQGTQVTVSS | high polyreactivity
2 | QVQLVQSGGGLVQAGGSLRLSCAASGRTIYSKAMGWYRQAPGKERELVAAITSTDDSTYYADSVKGRFTISRDNAKNTVYLQMNSLKPEDTAVYYCNTDGLIAIRGLWWVEYDYWGQGTQVTVSS | low polyreactivity
3 | QVQLVESGGGLVQAGGSLRLSCAASGLTLYKNGMGWYRQAPGKERELVAVISRSGGRTYYAESVKGRFTISRDNAKNTVYLQMNSLKPEDTSVYYCAKRYGYTEYYYWGQGTQVTVSS | high polyreactivity
4 | QVQLVESGGGLVQAGGSLSLSCAASGRIFNRNAMGWYRQAPGKERELVASISSGGRTNYADSVKGRFTISRDNAKNTFYLQMNSLKPEDTAVYYCAAKSPRILLDYWGQGTQVTVSS | low polyreactivity
5 | QVQLVESGGGLVQAGGSLRLSCAASGGIFPYYAMGWYRQAPGKERELVADISSGGSTYYADSVKGRFTISRDNAKNTVYLQMNSLKPEDTAVYYCAADAGQYFTYSGDDNHDYWGQGTQVTVSS | low polyreactivity
6 | QVQHVESGGGLVQAGGSLRLSCAASGRIISYNAMGWYRQAPGKERELVAAISWGGGSTYYADSVKGRFTISRDNAKNTVYLQMNSLKPEDTAVYYCAKGWYRIKRNDYWGQGTQVTVSS | low polyreactivity
7 | QVQLVESGGGLVQAGGSLRLSCAASGFIFSSYAKGWYRQAPGKETELVAAITSGGSTNYADSVKGRFTISRDNAKNTVYLQMNSLYPEDTAVYYCATVPGGSWFFHWWSTGGDDEYWGQGTQVTVSS | low polyreactivity
8 | QVQLVESGGGLVQAGGSLRLSCAASGSIFYRNAMGWYRQAPGKERELVAAISSDGSTNYADSVTGRFTISRDNAKNTVYLQMNSLKPEDTAVYYCAAPWTQILDYWGQGTQVTVSS | low polyreactivity
9 | QVQLVESGGGLVQAGGSLRLSCAASGFIFSKNAMGWYRQAPGKERELVARITRRVGSTYYADSVKGRFTISRDNAKITVYLQMNSLKPEDTAVYYWAAVVHIQRSTRDYWGQGTQVTVSS | high polyreactivity
10 | QVQLVESGGGLVQAGGSLRLSCAASGSTFLHYAMGWYRQAPGKERELVATITSGDSTSYADSVKGRFTISRDNAKNTVYLQMNSLKPEDTAVYYCTANRVHRSASPYDYWGQGTQVTVSS | low polyreactivity
11 | QVQLVESGGGLVQAGGSLPLSSAASGFTFYRNAMGWYRQVPGKERELVAAITTRGVTTYYADSVKGRFTIARDYAKNTVYVLMNCLKPVDTAVYYFAAKKSLIGDYWGQGTQVTVSS | high polyreactivity
12 | QVQLVESGGGLVQAGGSLRLSCAASGGTIEYYAMGWYRQAPEKERELVAAISVSGGRTYYADSVKGRFTISRDNAKNTVYLQMNSLKPEDTAVYYCATDSRLWGQGTQVTVSS | high polyreactivity
13 | QVQLVESGGGLVQAGGSLRLSCAASGTIFTNAMGCYRQEPGKERQLVAAISSSGGSTYYADSVKGRFTISRDNAKNTVYLQMNSLKPEDTAVYYCAADGEVSLWTGYDYDYWGKGTQVTVSS | low polyreactivity
14 | QVQLVESGGGLVQAGGSLRLSCAASGRTIDDYDMGWYRQAPGKERELVADINSGGSTYYADSVKGRFTISRDNAKNTVYLQMNSLKPEDTAVYYCAATLVPWPYTGPRYGYWGQGTQVTVSS | high polyreactivity
15 | QVQLVESGGGLVQAGGSLRLSCAASGSIFVGNAMGWYRQAPGKERELVAAISSSGGRTFYADSVKGRFTISRDNAKNTVYLQMNSLKPEDTAVYYCAAVYTHWQQRMDYWGQGTQVTVSS | high polyreactivity
16 | QVQLVESGGGLVQAGGSLRLSCAASGLTFVKNAMGWNRQAPGKERELVAAITVSGSRTYYADSVKGRFTISRDNAKNTVYLQMNSLKPEDTGVYYCNAYPYYLVRNMDSWGQGTLVTVSS | high polyreactivity
17 | QVQLVESGGGLVQAGGSLRLSCAASGRIFRYNAMGWYRQAPGKERELVAAISWSGGSTYADSVKGRFTISRDNAKNTVYLQMNSLKPEDTAVYFCAADSSDLYVWGYDHGGQGTQVTVSS | low polyreactivity
18 | QVQLVESGGGLVQAGGSLRLSCAASGRTFRWYAMGWYRQAPGKETELVAAINPGGSTNYADSVKGRFTISRDNAKNTVYLQMNSLKPEDTAVYYCNAAGYDALTHNYYWGQCTQVTVSS | low polyreactivity
19 | QVQLVESGGGLVQAGGSLRLSCAASGFIFGGYAMGWYRQAPGKERELVAAITGGGTTYYADSVKGRFTISRDNAKNTVYLQMNSLKPEDTAVYYCAAAYRLGYHKYYYWGQGTQVTVSS | high polyreactivity
20 | QVQLVESGGGLVKAGGSLRITCAASGRIFGYYPMGWYRPATGKESELVAAITRRGGITYYADSVKGRFTISRDNAKNTVYLPMNCLKPADTAVYYRAADRYWGYDYWGQGTQVTGSS | high polyreactivity
21 | QVQLVESGGGLVQAGGSLRLSCAASGNTFPFNAMGWYRQAPGKERELVAAISRGGSTYYADSVKGRFTISRDNAKNTVYLQMNSLKPEDTAVYYCAVSAGKRRLDYWGQGTQVTVSS | high polyreactivity
22 | QVQLVESGGGLVQAGGSLRLRSASSGYILFAYAMVWYRQAPGKERELVATISNYGGITYYAESVKGRFTISRDNAKNTVYLQMNRLKPEDNAVYYCAAAEAGGLVTYDYWGQGTQVTVSS | low polyreactivity

Row | Sequence | polyreactivity (PSR sort gate)
23 | QVQLVESGGGLVQAGGSLRLSCAASGITIFRYALGWSRQAPGKERELVAAISSSGGSTYYADSVKGRFTISRDNAKNTVYLQMNSLKPEDTAVYYCAAAHGYRYYWGQGTQVTVSS | high polyreactivity
24 | QVQLVESGGGLVQAGGSLRLSCAASGRTSLLYAMGWYRQAPGKERELVATISIGGSTYYADSVKGRFTISRDNAKKTVYLQMKSRKPEDTAVYYCAADVWWFFQPSTLGDFEYWGQGTQVTVSS | low polyreactivity
25 | QVQLVESGGGLVQAGGSLRLSCAASGSIFFGNVMGWYRQAPGKERELVAVISWSGGTTYYADSVKGRFTISRDNAKNTVYLQMNSLKAEYTAVYYCNARYLRRGDYWGQGTQVTVSS | low polyreactivity
26 | QVELVESGGGLVQAGGSLRLSCAASGFTFVSYAMGWYRQAPGKEREFVATISKRGGSTYYADSVKGRFTISRDNAKNTVYLQMNSLKPEDTAVYYCAVRYPYYSYRAKLGYCGQGTQVTVSS | high polyreactivity
27 | QVQLVESGGGLVQAGGSLRLSCAASGRTNWTYVMGWYRQAPGKERELVAAISRSGSSTYYADSVKGRFTISRDNAKNTVYLQMNSLKPEDTAVYYCNNVDGTTLDDHYMDYWGQGTQVTVSS | low polyreactivity
28 | QVQLVESGGRLVKAGASHRLSCAASAITCGRNTRGWYRQAPGKARELVAAIDSGVNTYADSVKGRFTISRDNAKYTVYLQMTSLKPEDTSVYYWAFVGGEFSSYGYWGLGTQVTVSS | low polyreactivity
29 | QVQLVESGGGLVQAGGSLRLSCAASGIIFYHNAMGWYRQAPGKERELVASITEIGGSTYYADSVKGRFTISRDNAKNTVYLQMNSLKPEDTAVYYCAAGTLTSFSRYDYWGQGTQVTVSS | low polyreactivity
30 | QVQLEESGGGLVQAGGSLRLSCAASGRIYRYYDMGWYRQAPGKEREFVAAITRSGAITYYADSLKGRFTISRDNAKNTVYLQMNSLKPEDTAVYYCAAVDDDYSIVWYDYWGQVTQVTVSS | low polyreactivity
31 | QVQLVESGGGLVQAGGSLRLSCAASGRTSGNNAMGWYRQAPGKERELVAAITRGGRTYYADSVKGRFTISRDNAKNTVYLQLNSLKPEDTAVYYCAARRYFYLFGYYYWGQGTQVTVSS | high polyreactivity
32 | QVQLVESGGRLVQAGGSLRLTCAASGITFGDYAMGWYRQAPGKERELVAGINWSGDGTYYADSVKGRFTISRDNAKNTVYLQMNSLKPEDTAVYYCAAETFYDYGGYDYWGQGTQVTVSS | low polyreactivity
33 | QVQLVESGGGLVQAGGSLRLICAASGSTFSSYFMGWYRQAPRKERKLVAAITRSGVYTYYADSVKGRFTISRDNAKNTVYLQMNSLKPEDTAVYYCARRAKGAYWNEYNYWGQGTQVTVSS | high polyreactivity
34 | QVQLVESGGGLVQAGGSLRLSCAASGFTFYIYAMGWYRQAPGKERELVAAINFRGGSTYYADSVKGRFTISRDNAKNTVYLQMNSLKPEDTAVYYCAARSRDKYDYWGQGTQVTVSS | high polyreactivity
35 | QVQLVESDGGLVQAGGSLRLSCAASGSTFRYNAMGWYRQAPGKERELVAAISWGGGTPFYADSVKGRFTISRDNAKNTVYLQMNSLTPEDTAVYYCAASYRDYPWGRYYYWGQGTQVTVSS | low polyreactivity
36 | QVQLVESGGGLVQAGGSLRLSCAASGSIFKQYAMGWYRQAPGKERELVARITGSGGSTYYADSVKGRFTISRDNAKNTVYLQMNSLKPEDTAVYYCATKRYARSSGGYDYWGQGTQVTVSS | low polyreactivity
37 | QVQLVESGGVLVQAGGSLRLSCAASGYIFYPYAMGWYRQAPGKERELVAAISGSGSGTYYADSVKGRFTISRDNAKNTVYLQMNSLKPEDTAVYYCAKYLYDNVWMDYWGQGTQVTVSS | low polyreactivity
38 | QFQLVESGGGLVQAGGSLRLSCAASGRSFNRNAMGWYRQAPGKERELVAAISRSGTRTYYADSVKGRFTISRDNAKNTVYLQMNSLKPEDTAVYYCNALRVDGGDYWGQGTQVTVSS | high polyreactivity
39 | QVQLVESGGGLVQAGGSLRLSCAASGSIFSSNAMGWYRQAPGKERELVAAITSSGTRTYYADSVKGRFTISRDNAKNTVYLQMNSLKPEDTAVYYCATRLRRSDHRYPYDYWGQGTQVTVSS | low polyreactivity
40 | QVQLVESGGGLVQAGVSLRLSCAASGSIFGHYAMGWYRQAPGKERELVAAISWSGTSTYYADSVKGRFTISRDNAKNTVYLQMNSLKPEDTAVYYCNVVYRVVSPSGGGYWGQGTQVTVSS | high polyreactivity
41 | QVQLVESGGGLVQAGGSLRLSCAASGRTFDYYAMGWFRQAPGKERELVAAISSSGGRTYYADSVKGRFTISRDNAKNTVYLQMNSLKPEDTAVYYCNAVVSRNYEYWGQGTQVTVSS | high polyreactivity
42 | QVQLVESGGGLVQAGGSLRLSCAASGSTINQYPLGWYRQATGKERELVAAITRRGGSTYYADSVKGRFTISRDNAKNTVYLQMNSLKPEDTAVYYCAAAYPYTTVSYDYWGQGTQVTVSS | high polyreactivity
43 | QVQLVESGGGLVQAGGSLRLSCAASGIIFTRYAMGWYRQAPGKERELVAAITRNGVSTYYADSVKGRFTISRDNAKNSVYLQMNSLKPEDTAVYYCNTYVLRRYAYGYWGQGTQVTVSS | high polyreactivity
